Assay results taken from paper PMC314469, “Protein Interaction Networks by Proteome Peptide Scanning” (PLoS Biology, 2004).

Target: Sho1 SH3 (SHO1_YEAST), P40073
Assay: SPOT array

Sequence of Sho1 SH3 (SHO1_YEAST), P40073 (P40073 295-366): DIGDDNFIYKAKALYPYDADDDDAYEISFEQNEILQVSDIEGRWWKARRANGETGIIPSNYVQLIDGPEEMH

Binder | normalised SPOT signal, Boehringer light units (BLU); mean over the file's lines of this peptide
DYQPLSPPRELDPD [249-262 Hypothetical ORF] | 75.3
ESHPELPNKDVKLD [158-171 putative methylenetetrahydrofolate reductase (mthfr)] | 53.7
DYLPQHPHRTSSLP [109-122 scaffold protein for MAP kinase cascade] | 87.8
SGFPLLPSKRGVTA [165-178 Hypothetical ORF] | 644
DSLPFAPLRKVYEL [139-152 Hypothetical ORF] | 96.8
DYLPPVPEKNAGKQ [274-287 Mitochondrial ribosomal protein MRPL35 (YmL35)] | 224
AAWPLDPARERWTR [269-282 Hypothetical ORF] | 137
YGPPTDPRKQKQAK [36-49 neutral trehalase] | 198
DELPSPPLRMVHID [237-250 Hypothetical ORF] | 224
DSGPQRPKRTRAKG | 202
DERPFRPKRTSRSA [149-162 Hypothetical ORF] | 183
DGRPHSPLRARSAT [51-64 Involved in protecting the cell against bleomycin damage] | 37.1
DQAPSLPPKPNTQL [158-171 homologous to mouse and human Tsg101 tumor susceptibility genes] | 176
YQYPQTPSKVDISI [243-256 Product of gene unknown] | 196
DLPPKFPEKPVHLV [186-199 Hypothetical ORF] | 65.8
ASLPVGPRKNGMNV [26-39 Hypothetical ORF] | 215
AMPPTLPHRDWKDY [84-97 component of peroxisomal import machinery] | 321
SQRPGSPGRYKLVR [174-187 gamma subunit of translational initiation factor eIF-2] | 178

Binder | normalised SPOT signal, Boehringer light units (BLU); mean over the file's lines of this peptide
AKQPKEPKKRTTRR [7-20 11-kDa nonhistone chromosomal protein] | 103
ALKPKTPSKAPRKR [65-78 origin recognition complex subunit 2] | 830
DVLPAGPVRSLEGA [122-135 Hypothetical ORF] | 115
YILPKNPFRVPSEM [125-138 Hypothetical ORF] | 290
SILPAFPSKSSNEQ | 73.6
DRPPDVPRKIIVGR [301-314 ubiquitin carboxyl-terminal hydrolase] | 477
YMQPIIPGKTESFE [151-164 similar to ubiquitin activating enzyme (E1)] | 165
WSYPYEPLRVLQVG [17-30 Hypothetical ORF] | 898
AIEPGVPSRYSDET [91-104 Hypothetical ORF] | 125
YTLPLLPGKGGFRI [228-241 Hypothetical ORF] | 509
YSLPMHPGRWWVHT [222-235 " 2,3-oxidosqualene-lanosterol cyclase"] | 453
ATVPSAPYRKQIIS [11-24 nuclear pore protein] | 122
DSIPLEPKKAKHLM [82-95 50-kDa subunit of ORC] | 133
SREPEVPQRLLTLI [250-263 Hypothetical ORF] | 105
DHKPENPIRTFKDL [90-103 uridine permease] | 168
DVYPHEPAKNGEGS [311-324 3-phosphoglycerate dehydrogenase] | 132
WNLPWSPFKITTIM [95-108 Translation initiation factor eIF-2B epsilon subunit] | 1240
DSIPVDPEKVVAIV [216-229 acetyl CoA hydrolase] | 91

The next lines start with the values.

normalised SPOT signal, Boehringer light units (BLU); mean over the file's lines of this peptide | Binder
681 | APAPLDPFKTGGNN [849-862 " contains 3 SH3 domains, interacts with Bee1p"]
217 | YSNPQTPLRSLAGL [1404-1417 Type 1 membrane protein with EF hand motif]
91 | DFTPVEPSKMREYI [629-642 MCM3 protein homolog (S. cerevisiae)]
169 | ATTPAIPTKSDEAE
152 | APLPPQPRKHDKTP [587-600 Protein Kinase C]
160 | AKSPLLPFKLLSDR [330-343 Hypothetical ORF]
83.2 | AVDPENPKKLASKF [384-397 Hypothetical ORF]
81.6 | AAQPPLPSRNVASG [446-459 Actin binding protein]
195 | YKIPVVPPRETYFA [507-520 involved in cell wall biogenesis]
401 | ATRPSSPMRHKSIS [585-598 protein kinase domain]
220 | DLQPLEPKKAAAST [805-818 " contains 3 SH3 domains, interacts with Bee1p"]
333 | DSLPKLPFRSWGQP [490-503 Amino acid permease]
118 | ARDPILPYRLVKDR [345-358 Product of gene unknown]
144 | DPLPYSPLKLYDQK [382-395 Transcription factor (fork head domain)]
96.8 | DESPIDPSKAPKVP [350-363 Hypothetical ORF]
130 | EANPDNPKKLDLKA [783-796 Hypothetical ORF]
86.7 | EAAPQLPSRSSAAP [505-518 Actin binding protein]
129 | ALVPFAPFKLLKDR [340-353 Triacetylfusarinine C transporter]
128 | YPSPAQPPKSPLLN [448-461 " involved in bud formation, has SH3 domain"]
620 | AFVPTNPWRSSMSL [315-328 invertase (sucrose hydrolyzing enzyme)]
207 | DDTPSIPSKISSKS [1313-1326 component of the mitotic spindle]
86.2 | AGSPIRPYKQRYLL [526-539 heat shock transcription factor]
258 | APTPPAPSRSEKLH [727-740 Hypothetical ORF]
